Measurements from the supplement of paper PMC7877785.
± gives the uncertainty stated by the source.

Assay: self-splicing fitness, log relative to wild type (ln ratio); higher = more splicing; Tetrahymena group I intron in knt gene, E. coli kanamycin selection, DiMSum; sequences stand for … in CUCUCU…GGAGGGAAAAGUUAUCAGGCAUGCACCUGGUAGCUAGUCUUUAAACCAAUAGAUUGCAUCGGUUUAAAAGGCAAGACCGUCAAAUUGCGGGAAAGGGGUCAACAGCCGUUCAGUACCAAGUCUCAGGGGAAACUUUGAGAUGGCCUUGCAAAGGGUAUGGUAAUAAGCUGACGGACAUGGUCCUAACCACGCAGCCAAGUCCUAAGUCAACAGAUCUUCUGUUGAUAUGGAUGCAGUUCACAGACUAAAUGUCGGUCGGGGAAGAUGUAUUCUUCUCAUAAGAUAUAGUCGGACCUCUCCUUAAUGGGAGCUAGCGGAUGAAGUGAUGCAACACUGGAGCCGCUGGGAACUAAUUUGUAUGCGAAAGUAUAUUGAUUAGUUUUGGAGUACUCGUGGUCG
Outline: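 A randomised library covering all eight P1ex-region intron nucleotides was built with the intron in the knt kanamycin-resistance gene on pET-22b(+) and held in E. coli BL21(DE3). Cells were grown overnight at 37°C or 30°C on LB agar, with or without 25 μg/mL kanamycin, plus 100 μg/mL carbenicillin, 50 μM IPTG and 0.2% rhamnose, and pooled colonies were amplicon-sequenced on an Illumina HiSeq 2500. DiMSum fitness is the error-weighted combination of wild-type-normalised replicate fold changes, kanamycin versus none.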

| Sequence | self-splicing fitness (ln) (30 °C) | self-splicing fitness (ln) (37 °C) |
| --- | --- | --- |
| ACAAAGCAAUAUUACGAUUU | -0.651 ± 0.066 | -0.399 ± 0.078 |
| ACAAAGCAAUAUUACGCACA | -0.593 ± 0.083 | -0.0238 ± 0.099 |
| ACAAAGCAAUAUUACGCGAG | -1.33 ± 0.06 | -0.621 ± 0.072 |
| ACAAAGCAAUAUUACGCGCC | -0.241 ± 0.083 | -0.055 ± 0.1 |
| ACAAAGCAAUAUUACGCGGA | -1.7 ± 0.078 | -0.866 ± 0.072 |
| ACAAAGCAAUAUUACGCUUA | -2.37 ± 0.12 | -1.71 ± 0.13 |
| ACAAAGCAAUAUUACGGAUG | -1.59 ± 0.087 | -1.08 ± 0.1 |
| ACAAAGCAAUAUUACGGCGA | -0.177 ± 0.072 | 0.19 ± 0.094 |
| ACAAAGCAAUAUUACGGGAA | -2.44 ± 0.18 | -2.48 ± 0.17 |
| ACAAAGCAAUAUUACGGUCU | -0.435 ± 0.056 | 0.237 ± 0.079 |
| ACAAAGCAAUAUUACGGUGG | -3.64 ± 0.11 | -2.07 ± 0.12 |
| ACAAAGCAAUAUUACGGUUG | -2.44 ± 0.07 | -1.89 ± 0.09 |
| ACAAAGCAAUAUUACGUAAC | -3.21 ± 0.21 | -1.67 ± 0.14 |
| ACAAAGCAAUAUUACGUCCA | -1.62 ± 0.097 | -0.403 ± 0.1 |
| ACAAAGCAAUAUUACGUCUG | -1.1 ± 0.056 | -0.244 ± 0.074 |
| ACAAAGCAAUAUUACGUGAA | -1.51 ± 0.074 | -1.5 ± 0.083 |
| ACAAAGCAAUAUUACGUGCG | -1.07 ± 0.066 | -0.382 ± 0.076 |
| ACACAGCAAUAUUACGAAAU | -2.47 ± 0.13 | -1.87 ± 0.12 |
| ACACAGCAAUAUUACGAACC | -2.57 ± 0.48 | -1.09 ± 0.45 |
| ACACAGCAAUAUUACGACCG | -0.326 ± 0.077 | 0.342 ± 0.11 |
| ACACAGCAAUAUUACGACCU | -0.472 ± 0.069 | 0.384 ± 0.092 |
| ACACAGCAAUAUUACGCAUG | -1.04 ± 0.075 | -0.692 ± 0.081 |
| ACACAGCAAUAUUACGCAUU | -2.47 ± 0.081 | -1.5 ± 0.087 |
| ACACAGCAAUAUUACGCCCA | -1.49 ± 0.075 | -0.603 ± 0.073 |
| ACACAGCAAUAUUACGCCCU | -0.215 ± 0.072 | -0.0145 ± 0.077 |
| ACACAGCAAUAUUACGGCGU | -0.67 ± 0.07 | -0.414 ± 0.093 |

| Sequence | self-splicing fitness (ln) (30 °C) | self-splicing fitness (ln) (37 °C) |
| --- | --- | --- |
| ACACAGCAAUAUUACGGCUG | -2.88 ± 0.12 | -1.42 ± 0.1 |
| ACACAGCAAUAUUACGUAGU | -2.48 ± 0.077 | -1.71 ± 0.088 |
| ACACAGCAAUAUUACGUCGC | -4.02 ± 0.21 | -2.56 ± 0.17 |
| ACACAGCAAUAUUACGUGAC | -4.1 ± 0.13 | -2.05 ± 0.11 |
| ACACAGCAAUAUUACGUUCG | -0.803 ± 0.05 | -1.13 ± 0.064 |
| ACAGAGCAAUAUUACGAAGC | -2.69 ± 0.26 |  |
| ACAGAGCAAUAUUACGACUC | -2.94 ± 0.33 | -2.47 ± 0.24 |
| ACAGAGCAAUAUUACGAUAA | -4.19 ± 0.46 | -2.51 ± 0.36 |
| ACAGAGCAAUAUUACGAUUC | -2.88 ± 0.27 | -1.72 ± 0.31 |
| ACAGAGCAAUAUUACGCAAC |  | -2.1 ± 0.41 |
| ACAGAGCAAUAUUACGCACC | -3.6 ± 0.47 | -2.04 ± 0.38 |
| ACAGAGCAAUAUUACGCCAA | -2.92 ± 0.22 | -2.78 ± 0.32 |
| ACAGAGCAAUAUUACGCCUU | -3.76 ± 0.42 | -1.9 ± 0.3 |
| ACAGAGCAAUAUUACGCGCC | -3.3 ± 0.36 | -1.83 ± 0.42 |
| ACAGAGCAAUAUUACGCGCU |  | -1.91 ± 0.2 |
| ACAGAGCAAUAUUACGCUCU | -3.01 ± 0.24 | -2.41 ± 0.49 |
| ACAGAGCAAUAUUACGCUUG | -1.62 ± 0.12 | -1.63 ± 0.17 |
| ACAGAGCAAUAUUACGGGAA | -2.54 ± 0.19 | -2.98 ± 0.34 |
| ACAGAGCAAUAUUACGGUCG | -2.29 ± 0.11 | -1.36 ± 0.16 |
| ACAGAGCAAUAUUACGGUCU | -3.77 ± 0.18 | -2.48 ± 0.15 |
| ACAGAGCAAUAUUACGUCAU | -3.71 ± 0.17 | -2.75 ± 0.27 |
| ACAGAGCAAUAUUACGUCCG | -3.65 ± 0.21 | -2.52 ± 0.27 |
| ACAGAGCAAUAUUACGUCGU | -3.11 ± 0.16 | -0.947 ± 0.15 |
| ACAGAGCAAUAUUACGUGCA | -3.73 ± 0.29 | -1.57 ± 0.25 |
| ACAGAGCAAUAUUACGUGCC | -3.54 ± 0.46 |  |
| ACAGAGCAAUAUUACGUGUC | -3.27 ± 0.22 | -2.94 ± 0.38 |

| Sequence | self-splicing fitness (ln) (30 °C) | self-splicing fitness (ln) (37 °C) |
| --- | --- | --- |
| ACAUAGCAAUAUUACGAAUU | -3.3 ± 0.2 | -1.26 ± 0.14 |
| ACAUAGCAAUAUUACGACGA | -0.942 ± 0.068 | -0.294 ± 0.078 |
| ACAUAGCAAUAUUACGAGAA | -2.62 ± 0.29 | -2.35 ± 0.25 |
| ACAUAGCAAUAUUACGAGAG | -3.57 ± 0.28 | -2.55 ± 0.18 |
| ACAUAGCAAUAUUACGAGCG | -0.74 ± 0.12 | -0.0992 ± 0.12 |
| ACAUAGCAAUAUUACGAGGA |  | -2.56 ± 0.29 |
| ACAUAGCAAUAUUACGAGUG | -1.16 ± 0.073 | -1.05 ± 0.09 |
| ACAUAGCAAUAUUACGAUCC | -1.77 ± 0.15 | -0.941 ± 0.16 |
| ACAUAGCAAUAUUACGAUCU | 0.0431 ± 0.089 | -0.196 ± 0.1 |
| ACAUAGCAAUAUUACGCAUC | -3.98 ± 0.34 | -1.3 ± 0.14 |
| ACAUAGCAAUAUUACGCCAU | -3.25 ± 0.28 | -2.08 ± 0.22 |
| ACAUAGCAAUAUUACGCCGG | -0.986 ± 0.14 | 0.077 ± 0.21 |
| ACAUAGCAAUAUUACGCGGG | -3.09 ± 0.12 | -1.64 ± 0.13 |
| ACAUAGCAAUAUUACGCUGA | -1.47 ± 0.093 | -0.74 ± 0.12 |
| ACAUAGCAAUAUUACGGACC | -1.56 ± 0.12 | -1.84 ± 0.23 |
| ACAUAGCAAUAUUACGGGUU | -2.41 ± 0.08 | -1.77 ± 0.11 |
| ACAUAGCAAUAUUACGGUAG | -4.45 ± 0.42 | -2.89 ± 0.32 |
| ACAUAGCAAUAUUACGGUCA | -0.873 ± 0.13 | 0.165 ± 0.13 |
| ACAUAGCAAUAUUACGGUUA | -1.05 ± 0.098 | -0.751 ± 0.095 |
| ACAUAGCAAUAUUACGUAGU | -2.54 ± 0.098 | -2.32 ± 0.12 |
| ACAUAGCAAUAUUACGUCAC | -3.32 ± 0.18 | -2.93 ± 0.28 |
| ACAUAGCAAUAUUACGUCAG | -2.66 ± 0.13 | -3.18 ± 0.18 |
| ACAUAGCAAUAUUACGUCCA | -1.24 ± 0.14 | -0.641 ± 0.17 |
| ACAUAGCAAUAUUACGUGCC | -2.1 ± 0.15 | -0.986 ± 0.19 |
| ACAUAGCAAUAUUACGUUAA | -3.09 ± 0.19 | -1.36 ± 0.15 |
| ACAUAGCAAUAUUACGUUAC | -1.52 ± 0.22 |  |
